Legend:
[1] = target: T1, cynomolgus α4β7 integrin (cynomolgus monkey); assay: FACS, cynomolgus lymphocytes
T1 construct: whole, on cells; On CHOK1-cα4β7 cells or cynomolgus blood lymphocytes; also called cα4β7; cyno α4β7

[2] = target: T1, cynomolgus α4β7 integrin; assay: binding, cynomolgus CD8+ memory T cells, summary table
[3] = target: T1, cynomolgus α4β7 integrin; assay: FACS, cyno CD8+ total
[4] = target: T1, cynomolgus α4β7 integrin; assay: FACS, cynomolgus CD4+ T cells
[5] = target: T1, cynomolgus α4β7 integrin; assay: FACS, cyno CD8+ naïve T cells
[6] = target: T1, cynomolgus α4β7 integrin; assay: FACS, cyno CD4+ memory
[7] = target: T1, cynomolgus α4β7 integrin; assay: FACS, cyno CD4+ naïve
[8] = target: T2, cynomolgus FcRn ECD protein (cynomolgus monkey, UniProt Q8SPV9 24-297; Q8SPW0 21-119); assay: SPR (Biacore), antibody immobilised, FcRn injected, pH 6.0, steady state; pH 6.0
T2 construct: extracellular domain
T2 sequence (Q8SPV9 24-297 limits assumed, chain 1 of 2): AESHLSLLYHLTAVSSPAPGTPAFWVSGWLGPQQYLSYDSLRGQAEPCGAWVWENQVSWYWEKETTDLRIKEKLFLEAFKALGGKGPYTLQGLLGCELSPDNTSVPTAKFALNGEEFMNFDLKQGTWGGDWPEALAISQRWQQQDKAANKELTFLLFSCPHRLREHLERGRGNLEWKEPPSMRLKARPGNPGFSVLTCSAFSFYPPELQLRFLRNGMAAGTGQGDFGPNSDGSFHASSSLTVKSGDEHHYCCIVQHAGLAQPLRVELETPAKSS
T2 sequence (Q8SPW0 21-119 limits assumed, chain 2 of 2): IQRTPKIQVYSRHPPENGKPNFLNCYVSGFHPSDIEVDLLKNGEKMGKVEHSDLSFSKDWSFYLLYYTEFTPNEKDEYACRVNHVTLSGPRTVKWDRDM

[9] = target: T3, human FcRn ECD protein (human, UniProt P55899 24-297; P61769 21-119); assay: as above
T3 construct: extracellular domain
T3 sequence (P55899 24-297 limits assumed, chain 1 of 2): as the sequence (Q8SPV9 24-297 limits assumed, chain 1 of 2) above, with D39N, Q44E, S99G, G189S, N190S, M217L, T269S counted along it
T3 sequence (P61769 21-119 limits assumed, chain 2 of 2): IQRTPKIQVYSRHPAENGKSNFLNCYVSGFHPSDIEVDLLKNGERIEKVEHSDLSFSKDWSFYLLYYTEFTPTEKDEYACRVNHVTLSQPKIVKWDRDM

[10] = target: T4, human FcγRIIIa (F176) on CHO-K1 cells (human, UniProt P08637 17-254); assay: flow cytometry on CHO-K1 cells expressing the receptor (curve FcgRIIIA F176), monomeric antibody, F(ab')2 anti-human IgG AF647; N=1
T4 construct: whole, on cells; also called F158
T4 sequence (P08637 17-254): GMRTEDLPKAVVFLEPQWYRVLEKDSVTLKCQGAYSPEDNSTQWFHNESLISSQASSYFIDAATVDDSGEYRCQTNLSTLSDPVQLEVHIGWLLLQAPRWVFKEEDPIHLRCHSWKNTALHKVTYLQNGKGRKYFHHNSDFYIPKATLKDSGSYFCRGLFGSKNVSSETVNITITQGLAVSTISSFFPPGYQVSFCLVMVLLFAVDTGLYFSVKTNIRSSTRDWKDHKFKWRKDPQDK

[11] = target: T1, cynomolgus α4β7 integrin; assay: binding, cynomolgus lymphocytes, summary table
[12] = target: T5, FcgRIIIB NA1 (human, UniProt O75015); assay: flow cytometry on CHO-K1 cells expressing the receptor (curve FcgRIIIB NA1), monomeric antibody, F(ab')2 anti-human IgG AF647; N=1
T5 construct: cell surface, on engineered CHO-K1 cells; the list of molecules has only an FcγRIIIb on CHO-K1 cells without the allotype; also called human FcγRIIIb (NA1) on CHO-K1 cells
T5 sequence (O75015 other isoform, or with tags, fused parts or gaps limits assumed): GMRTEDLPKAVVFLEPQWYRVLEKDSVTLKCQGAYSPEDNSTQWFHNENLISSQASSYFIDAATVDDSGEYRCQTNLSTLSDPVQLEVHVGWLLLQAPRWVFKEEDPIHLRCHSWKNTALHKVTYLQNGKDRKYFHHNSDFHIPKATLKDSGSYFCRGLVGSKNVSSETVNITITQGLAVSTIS

[13] = target: T1, cynomolgus α4β7 integrin; assay: FACS, cyno CD4+ total
[14] = target: T6, human FcγRIIIa (V158) extracellular domain protein (human, UniProt P08637 17-208); assay: SPR (Biacore), N = 1
T6 construct: extracellular domain; also called hFcγRIIIa (V158); FcγRIIIa158V
T6 sequence (P08637 17-208 F176V limits assumed): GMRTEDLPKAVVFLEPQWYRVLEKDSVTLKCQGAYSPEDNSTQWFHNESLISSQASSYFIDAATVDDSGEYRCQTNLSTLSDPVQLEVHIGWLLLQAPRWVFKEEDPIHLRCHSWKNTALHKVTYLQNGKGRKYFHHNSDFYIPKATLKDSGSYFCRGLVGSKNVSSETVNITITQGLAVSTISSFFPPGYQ

[15] = target: T7, human FcγRIIa (R131) extracellular domain protein (human, UniProt P12318 34-217); assay: SPR (Biacore), N = 1
T7 construct: extracellular domain; also called hFcγRIIa (R131); FcγRIIa 131R
T7 sequence (looked up): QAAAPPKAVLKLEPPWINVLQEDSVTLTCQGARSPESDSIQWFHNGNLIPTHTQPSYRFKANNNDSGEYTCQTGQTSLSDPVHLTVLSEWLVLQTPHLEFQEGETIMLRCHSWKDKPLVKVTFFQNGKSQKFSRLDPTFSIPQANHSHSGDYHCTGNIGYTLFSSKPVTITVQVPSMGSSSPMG

[16] = target: T1, cynomolgus α4β7 integrin; assay: FACS, cyno CD8+ naïve
[17] = target: T1, cynomolgus α4β7 integrin; assay: FACS, cyno CD8+ naïve; remark: listed apart in the source
[18] = target: T1, cynomolgus α4β7 integrin; assay: FACS, cyno CD4+ naïve T cells
[19] = target: T1, cynomolgus α4β7 integrin; assay: FACS, cynomolgus lymphocytes; remark: listed apart in the source
[20] = target: T1, cynomolgus α4β7 integrin; assay: FACS, cyno CD4+ memory T cells
[21] = target: T1, cynomolgus α4β7 integrin; assay: FACS, cyno CD8+ memory T cells
[22] = target: T8, FcgRIIA R131 (human, UniProt P12318); assay: flow cytometry on CHO-K1 cells expressing the receptor (curve FcgRIIA R131), monomeric antibody, F(ab')2 anti-human IgG AF647; N=1
T8 construct: cell surface, on engineered CHO-K1 cells; the list of molecules has only an FcγRIIa on CHO-K1 cells without the variant; also called human FcγRIIa (R131) on CHO-K1 cells
T8 sequence (receptor chain, looked up): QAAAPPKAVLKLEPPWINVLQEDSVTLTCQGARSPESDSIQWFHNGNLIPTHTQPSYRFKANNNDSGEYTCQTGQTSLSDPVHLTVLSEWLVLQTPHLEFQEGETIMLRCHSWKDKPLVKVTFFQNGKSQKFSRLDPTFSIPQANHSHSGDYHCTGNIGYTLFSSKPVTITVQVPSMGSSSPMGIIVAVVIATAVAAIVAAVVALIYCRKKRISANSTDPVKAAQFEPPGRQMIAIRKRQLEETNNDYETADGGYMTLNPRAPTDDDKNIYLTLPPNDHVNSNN

[23] = target: T1, cynomolgus α4β7 integrin; assay: FACS, cyno CD4+ memory; remark: listed apart in the source
[24] = target: T1, cynomolgus α4β7 integrin; assay: binding, cynomolgus CD4+ memory T cells, summary table
[25] = target: T9, FcgRIIIB NA2 (human, UniProt O75015); assay: flow cytometry on CHO-K1 cells expressing the receptor (curve FcgRIIIB NA2), monomeric antibody, F(ab')2 anti-human IgG AF647; N=1
T9 construct: cell surface, on engineered CHO-K1 cells; the list of molecules has only an FcγRIIIb on CHO-K1 cells without the allotype; also called human FcγRIIIb (NA2) on CHO-K1 cells
T9 sequence (O75015 17-200 N65S limits assumed): as the sequence (O75015 other isoform, or with tags, fused parts or gaps limits assumed) above, with R20S, N49S, D66N, V90I counted along it

[26] = target: T10, human FcγRIIIa (V176) on CHO-K1 cells (human, UniProt P08637 17-254); assay: flow cytometry on CHO-K1 cells expressing the receptor (curve FcgRIIIA V176), monomeric antibody, F(ab')2 anti-human IgG AF647; N=1
T10 construct: whole, on cells; also called V158
T10 sequence (P08637 17-254 F176V limits assumed): as the sequence (P08637 17-254) above, with F160V counted along it

B1: Ab-h1.9d-WT (antibody, human IgG1, kappa)
heavy: not shown
light: DIQMTQSPSSLSASVGDRVTITCHASQDISDNIGWLQQKPGKSFKLLIYHGTNLEDGVPSRFSGSGSGTDYTLTISSLQPEDFATYYCVQYAQFPWTFGGGTKVEIKRTVAAPSVFIFPPSDEQLKSGTASVVCLLNNFYPREAKVQWKVDNALQSGNSQESVTEQDSKDSTYSLSSTLTLSKADYEKHKVYACEVTHQGLSSPVTKSFNRGEC
notes: IgG1/kappa with D356E and L358M (EU); also called Anti-human α4β7 (AC-166667) hu IgG1/k WT mAb
EC50 [1]: 0.062 nM
EC50 [2]: 0.036 nM
EC50 [3]: 0.035 nM
EC50 [4]: 0.03 nM
EC50 [5]: 0.042 nM
EC50 [6]: 0.01 nM
EC50 [7]: 0.045 nM
Kd [8]: 2200 nM
Kd [9]: 3300 nM
binding result [10]: binds
EC50 [11]: 0.062 nM
binding result [12]: binds
EC50 [13]: 0.03 nM
Kd [14]: 100 nM
Kd [15]: 5200 nM
EC50 [16]: 0.042 nM
EC50 [17]: 0.042 nM
EC50 [18]: 0.045 nM
EC50 [19]: 0.062 nM
EC50 [20]: 0.01 nM
EC50 [21]: 0.036 nM
binding result [22]: binds
EC50 [23]: 0.01 nM
EC50 [24]: 0.01 nM
binding result [25]: binds
binding result [26]: binds

From US20260062488A1 (AbbVie / Abbott, published 2026)
